Source: publication PMC5740061 (Nature Communications, 2017)

B1: SDGF-TB1G1 (TB1G1 displayed on 293F cells) [designed binder] / Biotinylated His-Avi-TEAD1(194–411) [modified: biotin (BirA-500 kit); biotin (BirA-500 kit)] [not stated] (parent complex)
chain 1: PDEYIERAKECCKKGDIQCCLRYFEESGDPNVMLICLFCP
chain 2: RSIGTTKLRLVEFSAFLEQQRDPDSYNKHLFVHIGHANHSYSDPLLESVDIRQIYDKFPEKKGGLKELFGKGPQNAFFLVKFWADLNCNIQDDAGAFYGVTSQYESSENMTVTCSTKVCSFGKQVVEKVETEYARFENGRFVYRINRSPMCEYMINFIHKLKHLPEKYMMNSVLENFTILLVVTNRDTQETLLCMACVFEVSNSEHGAQHHIYRLVKD

Variants of: B1
Assay: mammalian (293F) surface display of a site-saturation mutagenesis library (every non-Cys single substitution), FACS sorting on biotinylated TEAD1 YBD, two sorting rounds, Illumina sequencing with perfect-match mapping; 20 nM biotinylated TEAD, monovalent 2-step stain (TEAD alone 30 min at 4 °C, dilute, pellet, then 20 nM streptavidin-Alexa Fluor 647), flow sorting on a BD Aria

| Variant | enrichment |
| --- | --- |
| chain 1 PFEYIERAKECCKKGDIQCCLRYFEESGDPNVMLICLFCP [chain 1 D2F] | -3.41 log2 (fold change of variant abundance after two TEAD sorts vs input, normalised to TB1G1) |
| chain 1 PHEYIERAKECCKKGDIQCCLRYFEESGDPNVMLICLFCP [chain 1 D2H] | -1.05 log2 (fold change of variant abundance after two TEAD sorts vs input, normalised to TB1G1) |
| chain 1 PTEYIERAKECCKKGDIQCCLRYFEESGDPNVMLICLFCP [chain 1 D2T] | -0.52 log2 (fold change of variant abundance after two TEAD sorts vs input, normalised to TB1G1) |
| chain 1 PDWYIERAKECCKKGDIQCCLRYFEESGDPNVMLICLFCP [chain 1 E3W] | -1.4 log2 (fold change of variant abundance after two TEAD sorts vs input, normalised to TB1G1) |
| chain 1 PDKYIERAKECCKKGDIQCCLRYFEESGDPNVMLICLFCP [chain 1 E3K] | -0.5 log2 (fold change of variant abundance after two TEAD sorts vs input, normalised to TB1G1) |
| chain 1 PDNYIERAKECCKKGDIQCCLRYFEESGDPNVMLICLFCP [chain 1 E3N] | 0.579 log2 (fold change of variant abundance after two TEAD sorts vs input, normalised to TB1G1) |
| chain 1 PDEYIEEAKECCKKGDIQCCLRYFEESGDPNVMLICLFCP [chain 1 R7E] | -0.163 log2 (fold change of variant abundance after two TEAD sorts vs input, normalised to TB1G1) |
| chain 1 PDEYIELAKECCKKGDIQCCLRYFEESGDPNVMLICLFCP [chain 1 R7L] | -0.388 log2 (fold change of variant abundance after two TEAD sorts vs input, normalised to TB1G1) |
| chain 1 PDEYSERAKECCKKGDIQCCLRYFEESGDPNVMLICLFCP [chain 1 I5S] | -2.04 log2 (fold change of variant abundance after two TEAD sorts vs input, normalised to TB1G1) |
| chain 1 PDEYIKRAKECCKKGDIQCCLRYFEESGDPNVMLICLFCP [chain 1 E6K] | -1.13 log2 (fold change of variant abundance after two TEAD sorts vs input, normalised to TB1G1) |
| chain 1 PDEYIRRAKECCKKGDIQCCLRYFEESGDPNVMLICLFCP [chain 1 E6R] | -1.78 log2 (fold change of variant abundance after two TEAD sorts vs input, normalised to TB1G1) |
| chain 1 PDEYIDRAKECCKKGDIQCCLRYFEESGDPNVMLICLFCP [chain 1 E6D] | -0.602 log2 (fold change of variant abundance after two TEAD sorts vs input, normalised to TB1G1) |
| chain 1 PDEYINRAKECCKKGDIQCCLRYFEESGDPNVMLICLFCP [chain 1 E6N] | -0.816 log2 (fold change of variant abundance after two TEAD sorts vs input, normalised to TB1G1) |
| chain 1 PDEYIERFKECCKKGDIQCCLRYFEESGDPNVMLICLFCP [chain 1 A8F] | -4.33 log2 (fold change of variant abundance after two TEAD sorts vs input, normalised to TB1G1) |
| chain 1 PDEYIERWKECCKKGDIQCCLRYFEESGDPNVMLICLFCP [chain 1 A8W] | -5.46 log2 (fold change of variant abundance after two TEAD sorts vs input, normalised to TB1G1) |
| chain 1 PDEYIERADECCKKGDIQCCLRYFEESGDPNVMLICLFCP [chain 1 K9D] | -0.576 log2 (fold change of variant abundance after two TEAD sorts vs input, normalised to TB1G1) |
| chain 1 PDEYIERAHECCKKGDIQCCLRYFEESGDPNVMLICLFCP [chain 1 K9H] | -1.5 log2 (fold change of variant abundance after two TEAD sorts vs input, normalised to TB1G1) |
| chain 1 PDEDIERAKECCKKGDIQCCLRYFEESGDPNVMLICLFCP [chain 1 Y4D] | -1.79 log2 (fold change of variant abundance after two TEAD sorts vs input, normalised to TB1G1) |
| chain 1 PDEQIERAKECCKKGDIQCCLRYFEESGDPNVMLICLFCP [chain 1 Y4Q] | 0.291 log2 (fold change of variant abundance after two TEAD sorts vs input, normalised to TB1G1) |
| chain 1 PDELIERAKECCKKGDIQCCLRYFEESGDPNVMLICLFCP [chain 1 Y4L] | -1.81 log2 (fold change of variant abundance after two TEAD sorts vs input, normalised to TB1G1) |
| chain 1 LDEYIERAKECCKKGDIQCCLRYFEESGDPNVMLICLFCP [chain 1 P1L] | -2.9 log2 (fold change of variant abundance after two TEAD sorts vs input, normalised to TB1G1) |
| chain 1 VDEYIERAKECCKKGDIQCCLRYFEESGDPNVMLICLFCP [chain 1 P1V] | -0.595 log2 (fold change of variant abundance after two TEAD sorts vs input, normalised to TB1G1) |
